Biological target: the molecule itself
Assay: size-exclusion chromatography (Superdex 75)
Protocol: Gel filtration was performed at 4° C. using the AKTA FPLC system equipped with a Superdex 75 HR 16/60 column (Amersham Biosciences). The buffer used for gel filtration is comprised of 50 mM Tris-Cl (pH 8.0), 300 mM NaCl, 5% Glycerol, 1 mM DTT. Fractions containing the recombinant protein were concentrated using Amicon concentrator (Millipore) to a final concentration of ca. 5 mg/ml as measured using Bradford assay. Concentrated proteins were stored in −80° C. degree after flash-freeze using liquid nitrogen. Mutant proteins were expressed, purified and stored following the same procedure. The molecular weight and oligomeric state of the protein was estimated based on the standard curve generated by using the standard proteins that include albumin, ovalbumin, chemotrypsinogen, RNase A. The final yield of the recombinant protein was 12-15 mg per liter culture for the wild type the mutant enzyme.

B1: tDGC mutant R158A (enzyme)
chain: MGSSHHHHHHSSGLVPRGSHMKELEYMAYHDPLTGLPNRRYFFELGNRYLDLAKREGKKVFVLFVDLAGFKAINDTYGHLSGDEVLKTVSKRILDRVARSDVVARYGGDEFTILLYDMKEEYLKSLLERILSTFREPVRVENKHLSVTPNIGVARFPEDGENLEELLKVADMRMYKAKEMKVPYFSLS
notes: Expressed from pET28b(+) with a (His)6 tag; Found as a monomer in solution; also called R158A mutant; mutant tDGC
- binding result: no binding

— patent US20120040403A1 (NANYANG TECHNOLOGICAL UNIVERSITY, published 2012)
